Measurements: US20260055188A1 (SHENGHE CHINA BIOPHARMACEUTICAL, published 2026)
Where two headings read alike, the source gives them in different places.

Key:
[1] = biological target: T1, Human-B7H3 His (manufacturer: Acro, CAT: TB73-H52E2) (human, UniProt Q5ZPR3-2 29-245); experiment: ELISA: Human-B7H3 His coated (0.3 µg/mL), antibody titrated, goat anti-human IgG Fc detection, OD450 (Example 3)
T1 construct: also called human B7H3 protein; B7H3 protein; not shown: His tag
T1 sequence (looked up): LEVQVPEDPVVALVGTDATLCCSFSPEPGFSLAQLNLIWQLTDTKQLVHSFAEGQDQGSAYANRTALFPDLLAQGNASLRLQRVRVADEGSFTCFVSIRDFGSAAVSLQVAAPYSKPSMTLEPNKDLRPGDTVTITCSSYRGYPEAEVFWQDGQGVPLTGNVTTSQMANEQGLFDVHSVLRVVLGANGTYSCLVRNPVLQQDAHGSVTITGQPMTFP
Protocol: Human-B7H3 His (manufacturer: Acro, CAT: TB73-H52E2, LOT: 2052-21AXF1-YS) was diluted to 0.3 μg/mL with a coating solution (1×PBS, pH7.4), and coated into a 96-well ELISA plate at 100 μL/well overnight at 4° C. The coating solution was poured off. Each well was washed with 1×PBST at 300 μL, washed 4 times with a plate washer, and patted dry on a flat paper. It was blocked with 3% skim milk powder at 300 μL/well, and incubated at 37° C. for 1 h. The blocking solution was poured off, washed 4 times with a plate washer, and patted dry on a flat paper. Negative control and positive control were set up. […] The variable region of the antibody sequence of the positive control consists of SEQ ID NO: 1 and SEQ ID NO: 5, with the constant region of human IgG1 added (SEQ ID NO: 85 and SEQ ID NO: 86). The positive control and antibody were diluted to 10 μg/mL with 3% skim milk powder as the starting concentration, and then diluted by 3-fold gradient (11 gradients in total). A blank well was set up and only the diluent was added. It was incubated at 37° C. for 1 h at 100 μL/well. The liquid in the well was discarded, washed 4 times with a plate washer, and patted dry on a flat paper. Goat anti-human IgG Fc was diluted with 3% skim milk powder at 1:20000, and incubated at 37° C. for 1 h at 100 μL/well. It was washed 6 times with a plate washer, and patted dry on a flat paper. TMB color developing solution was added at 100 μL/well, and wrapped with aluminum foil. Color development was performed at 37° C. in the dark for 8 min. Termination solution 1M HCl was added to terminate the color development reaction at 100 μL/well. Readings were taken at 450 nm on an ELISA reader.

[2] = biological target: T2, Human-TNFR2-His (manufacturer: SINO, CAT: 10417-H08H) (human, UniProt P20333 23-257); experiment: bridging ELISA: Human-B7H3 Fc coated (0.5 µg/mL), antibody titrated, then Human-TNFR2-His (0.5 µg/mL), HRP-labeled anti-His detection, OD450 (Example 4); the signal needs both proteins bound at once
T2 construct: Bought protein; also called human TNFR2 protein; TNFR2 protein; not shown: His tag
T2 sequence (looked up): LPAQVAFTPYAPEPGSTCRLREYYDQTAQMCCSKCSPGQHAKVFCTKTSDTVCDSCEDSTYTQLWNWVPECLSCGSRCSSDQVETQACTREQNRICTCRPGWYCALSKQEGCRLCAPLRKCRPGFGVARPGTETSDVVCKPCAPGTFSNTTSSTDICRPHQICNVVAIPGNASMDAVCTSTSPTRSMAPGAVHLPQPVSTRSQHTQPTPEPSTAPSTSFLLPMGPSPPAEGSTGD
Protocol: (§1) Human-B7H3 Fc (manufacturer: Acro, CAT: B73-H5253, LOT: 2053b-201XF1-UD) was diluted to 0.5 μg/mL with a coating solution (1×PBS, pH7.4) and coated into a 96-well ELISA plate at 100 μL/well at 4° C. overnight. The coating solution was poured off. Each well was washed with 1×PBST at 300 μL, washed 4 times with a plate washer, and patted dry on a flat paper. It was blocked with 3% skim milk powder at 300 μL/well, and incubated at 37° C. for 1 h. The blocking solution was poured off, washed 4 times with a plate washer, and patted dry on a flat paper. […] Starting at 300 nM, which was used as the initial concentration for 3-fold dilution, a total of 8 gradients were diluted, and a blank well was set up, and only diluent was added. It was incubated at 37° C. for 1 h at 100 μL/well. The liquid in the well was discarded, washed 4 times with a plate washer, and patted dry on a flat paper. Human-TNFR2-His (manufacturer: Sino, CAT: 10417-H08H, LOT: LC12SE2902) was diluted to 0.5 μg/mL, 100 μL was added to each well, and incubated at room temperature for 1 h. The plate was washed 3 times with PBST, and then the HRP-labeled his antibody was diluted with sample diluent at 1:10000, 100 μL was added to each well, and incubated at room temperature for 1 h. It was washed 6 times with a plate washer, and patted dry on a flat paper. TMB color developing solution was added at 100 μL/well, and wrapped with aluminum foil. Color development was performed at 37° C. in the dark for 8 min. Termination solution 1M HCl was added to terminate the color development reaction at 100 μL/well. Readings were taken at 450 nm on an ELISA reader.

[3] = biological target: T2, Human-TNFR2-His (manufacturer: SINO, …); experiment: BLI, antibody on AHC sensor, 100 nM human-TNFR2-His in solution
Protocol: The AHC sensor was soaked in 0.02% PBST (0.02% Tween 20, pH 7.4, 1×PBS) as a buffer for 600 s to remove the sucrose covering the sensor surface. The AHC sensor was equilibrated with 0.02% PBST (0.02% Tween 20, pH 7.4, 1×PBS) as a buffer for 60 s, the antibody in the sample plate was solidified for 300 s, and the secondary equilibration buffer was used for 180 s. 100 nM human-TNFR2-His (manufacturer: SINO, CAT: 10417-H08H, LOT: LC12SE2902) protein was bound to the antibody for 300 s and then dissociated for 600 s. After dissociation, 10 mM glycine (pH 2.0) was used as a regeneration buffer for 30 s. The sensor was regenerated with 10 mM glycine (pH 2.0).

[4] = biological target: T1, Human-B7H3 His (manufacturer: Acro, …); experiment: BLI, antibody on AHC sensor, 100 nM His-tagged protein (Acro TB73-H52E2) in solution
[5] = biological target: T3, Human-B7H3 Fc (manufacturer: Acro, CAT: B73-H5253) (human, UniProt Q5ZPR3-2 29-245); experiment: bridging ELISA: Human-B7H3 Fc coated (0.5 µg/mL), antibody titrated, then Human-TNFR2-His (0.5 µg/mL), HRP-labeled anti-His detection, OD450 (Example 4); half-maximal concentration of the bridging signal
T3 construct: Bought protein; not shown: Fc
T3 sequence (looked up): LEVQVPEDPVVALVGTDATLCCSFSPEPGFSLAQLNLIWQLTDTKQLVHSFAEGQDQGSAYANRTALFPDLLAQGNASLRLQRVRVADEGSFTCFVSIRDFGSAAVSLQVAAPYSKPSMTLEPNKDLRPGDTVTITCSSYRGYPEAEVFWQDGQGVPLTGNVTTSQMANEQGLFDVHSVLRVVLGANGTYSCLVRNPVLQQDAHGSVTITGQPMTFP
Protocol: as §1, with “TMB color developing solution was added at 100 μL/well, and wrapped with aluminum foil. Color development was performed at 37° C. in the dark for 8 min. Termination solution 1M HCl was added to terminate the color development reaction at 100 μL/well.” left out

[6] = biological target: T2, Human-TNFR2-His (manufacturer: SINO, …); experiment: ELISA: Human-TNFR2-His coated (0.3 µg/mL), antibody titrated, goat anti-human IgG Fc detection, OD450 (Example 10)
Protocol: (§2) Human-TNFR2-His (manufacturer: SINO, CAT: 10417-H08H, LOT: LC12SE2902) was diluted to 0.3 μg/mL with a coating solution (1×PBS, pH7.4), and coated into a 96-well ELISA plate at 100 μL/well overnight at 4° C. The coating solution was poured off. Each well was washed with 1×PBST at 300 μL, washed 4 times with a plate washer, and patted dry on a flat paper. It was blocked with 3% skim milk powder at 300 μL/well, and incubated at 37° C. for 1 h. The blocking solution was poured off, washed 4 times with a plate washer, and patted dry on a flat paper. Negative control and positive control were set up. […] The positive control and antibody were diluted to 10 μg/mL with 3% skim milk powder as the starting concentration, and then diluted by 3-fold gradient (11 gradients in total). A blank well was set up and only the diluent was added. It was incubated at 37° C. for 1 h at 100 μL/well. The liquid in the well was discarded, washed 4 times with a plate washer, and patted dry on a flat paper. Goat anti-human IgG Fc was diluted with 3% skim milk powder at 1:20000, and incubated at 37° C. for 1 h at 100 μL/well. It was washed 6 times with a plate washer, and patted dry on a flat paper. TMB color developing solution was added at 100 μL/well, and wrapped with aluminum foil. Color development was performed at 37° C. in the dark for 8 min. […] Readings were taken at 450 nm on an ELISA reader.

[7] = biological target: T2, Human-TNFR2-His (manufacturer: SINO, …); experiment: as above; remark: listed apart in the source
Protocol: as §2

B1: TB-F (bispecific antibody, human IgG1, kappa)
light: EVQLVQSGAEVKKPGATVKISCKVSGYSITDYLLHWVQQAPGKCLEWMGWIDPEDAKTKYGQKFQSRVTITADTSTDTAYMELSSLRSEDTAVYYCAANSGTGTMDAWGQGTLVTVSSGGGGSGGGGSGGGGSDIVMTQSPATLSVSPGERATLSCKASQNVGSNVDWYQQKPGQSPRVLIYKASIRYTGIPARFSGSGSGTEFTLTISILQSEDFAVYFCMQSKSYPITFGCGTKLEIKGGGGSGGGGSGGGGSDIVMTQSPATLSVTPGDRVSLSCRASQSISDYLHWYQQKSHESPRLLIKYASQSISGIPSRFSGSGSGSDFTLSINSVEPEDVGVYYCQNGHSFPLTFGAGTKLELKRTVAAPSVFIFPPSDEQLKSGTASVVCLLNNFYPREAKVQWKVDNALQSGNSQESVTEQDSKDSTYSLSSTLTLSKADYEKHKVYACEVTHQGLSSPVTKSFNRGEC
heavy: not shown
notes: also called antibody TB-F
B1 was tested, and the “EC50 (read off the curve)” value [1] was about 0.2 µg/mL and the binding result [2] was “binds”.

B2: TB-H (bispecific antibody, human IgG1, kappa)
light: EVQLVESGGGLVQPGGSLRLSCAASGSRLDYYAVAWFRQAPGKEREEVSCITYSGGSTNYAESVKGRFTISRDNSKNTLYLQMNSLRAEDTAVYYCTTEPYGSSCPLSGYDTWGQGTLVTVSSGGGGSGGGGSGGGGSDIVMTQSPATLSVTPGDRVSLSCRASQSISDYLHWYQQKSHESPRLLIKYASQSISGIPSRFSGSGSGSDFTLSINSVEPEDVGVYYCQNGHSFPLTFGAGTKLELKRTVAAPSVFIFPPSDEQLKSGTASVVCLLNNFYPREAKVQWKVDNALQSGNSQESVTEQDSKDSTYSLSSTLTLSKADYEKHKVYACEVTHQGLSSPVTKSFNRGEC
heavy: not shown
notes: also called antibody TB-H
B2 was tested, and the “EC50 (read off the curve)” value [1] was about 0.2 µg/mL and the binding result [2] was “binds”.

B3: TB-C1 (bispecific antibody, human IgG1, kappa)
light: DIVMTQSPATLSVTPGDRVSLSCRASQSISDYLHWYQQKSHESPRLLIKYASQSISGIPSRFSGSGSGSDFTLSINSVEPEDVGVYYCQNGHSFPLTFGAGTKLELKRTVAAPSVFIFPPSDEQLKSGTASVVCLLNNFYPREAKVQWKVDNALQSGNSQESVTEQDSKDSTYSLSSTLTLSKADYEKHKVYACEVTHQGLSSPVTKSFNRGEC
heavy: not shown
notes: also called antibody TB-C1
A Kd [3] of 2.89 nM, a koff [3] of 0.000665 s⁻¹ and a kon [3] of 230000 M⁻¹ s⁻¹ were found for B3 in this work. For the same binder, the Kd [4] was 159 nM, the koff [4] was 0.00174 s⁻¹ and the kon [4] was 10900 M⁻¹ s⁻¹. The “EC50 (read off the curve)” value [1] was about 0.3 nM and the “EC50 (read off the curve)” value [5] was about 0.5 nM.

B4: TB-G (bispecific antibody, human IgG1, kappa)
light: DIVMTQSPATLSVTPGDRVSLSCRASQSISDYLHWYQQKSHESPRLLIKYASQSISGIPSRFSGSGSGSDFTLSINSVEPEDVGVYYCQNGHSFPLTFGAGTKLELKRTVAAPSVFIFPPSDEQLKSGTASVVCLLNNFYPREAKVQWKVDNALQSGNSQESVTEQDSKDSTYSLSSTLTLSKADYEKHKVYACEVTHQGLSSPVTKSFNRGECGGGGSGGGGSEVQLVESGGGLVQPGGSLRLSCAASGSRLDYYAVAWFRQAPGKEREEVSCITYSGGSTNYAESVKGRFTISRDNSKNTLYLQMNSLRAEDTAVYYCTTEPYGSSCPLSGYDTWGQGTLVTVSS
heavy: not shown
notes: also called antibody TB-G
B4: binds [2].

B5: anti-TNFR2 control antibody (variable region SEQ ID NO: 83 and SEQ ID NO: 84, constant region of human IgG1 SEQ ID NO: 85 and SEQ ID NO: 86) (antibody, V domains shown)
VH: EVQLVQSGAEVKKPGATVKISCKVSGYSITDYLLHWVQQAPGKGLEWMGWIDPEDAKTKYGQKFQSRVTITADTSTDTAYMELSSLRSEDTAVYYCAANSGTGTMDAWGQGTLVTVSS
VL: DIVMTQSPATLSVSPGERATLSCKASQNVGSNVDWYQQKPGQSPRVLIYKASIRYTGIPARFSGSGSGTEFTLTISILQSEDFAVYFCMQSKSYPITFGQGTKLEIKR
notes: also called Positive control 1
A Kd [3] of 0.324 nM, a koff [3] of 0.000127 s⁻¹ and a kon [3] of 391000 M⁻¹ s⁻¹ were found for B5 in this work. The “EC50 (read off the curve)” value [6] was about 0.03 nM and the “EC50 (read off the curve)” value [7] was about 0.03 nM.

B6: Positive control 2 (variable region SEQ ID NO: 41) (VHH)
VHH: EVQLVESGGGLVQPGGSLRLSCAASGSRLDYYAVAWFRQAPGKEREEVSCITYSGGSTNYAESVKGRFTISRDNSKNTLYLQMNSLRAEDTAVYYCTTEPYGSSCPLSGYDTWGQGTLVTVSS
notes: not shown: it was loaded on an AHC (anti-human Fc) sensor
A Kd [3] of 1.61 nM, a koff [3] of 0.000427 s⁻¹ and a kon [3] of 266000 M⁻¹ s⁻¹ were found for B6 in this work. For the same binder, the “EC50 (read off the curve)” value [6] was about 0.05 nM.
